Patent publication US12428633B2, “Inducible dimerization of recombinases” (TRUSTEES OF BOSTON UNIVERSITY, priority 2016, dated 2025)
“Also recorded” adds a separate entry of the source.

How the values were obtained:
[1] = tested on: 2-input BLADE decoder in HEK293FT cells; test: 4OHT- and ABA-inducible 2-input BLADE decoder; format: cell-based, human; conditions: transient transfection, 4OHT 1 μM, ABA 100 μM
Experimental: DNA was transfected into the human embryonic kidney cell line (HEK293FT) using a polyethylenimine (PEI) protocol. Cells were plated onto 48-(2504) or 96-well (1004) plates the day prior to transfection (200,000 cells/mL), such that the cells were 50-70% confluent the day of transfection. Cells were kept in a humidified incubator at 37° C. and 5% CO2 and maintained in DMEM medium (Corning) with 10% Heat Inactivated Fetal Bovine Serum (Life Technologies), 50 U.I./mL penicillin/50 μg/mL streptomycin (Corning), 2 mM glutamine (Corning) and 1 mM sodium pyruvate (Lonza). PEI stocks were made from linear polyethylenimine (Polysciences 23966-2) and were dissolved at a concentration of 0.323 g/L in deionized water with the assistance of concentrated hydrochloric acid and sodium hydroxide and then filtered sterilized (0.24 μm). PEI stocks were stored at −80° C. until use and warmed to room temperature prior to usage. […]
(§1) Two days post-transfection and after trypsinization (0.05% Trypsin/0.53 mM EDTA, Corning) and resuspension, all HEK293FT cell populations were analyzed using a Becton Dickinson (BD) LSRFortessa SORP flow cytometer with HTS, except for data in FIG. 5, which were recorded on a BD LSRII. Time-course data was achieved through trypsinization and fixation of cells at particular time points (BD Cytofix) and kept at 4° C. until analyzed through flow cytometry. […]

[2] = tested on: BUF logic reporters in HEK293FT; test: Recombinase activity, orthogonality and cross-reactivity on BUF logic reporters; format: cell-based, human; conditions: transient transfection, dose-response (FIG. 8)
Experimental: FIG. 8A-8C show recombinase cross-reactivity dose-response profile of Cre, Dre, VCre and Vika. FIG. 8A is a summary of intended and unintended recombination of Cre, Dre, VCre and Vika site-specific recombinases.
DNA was transfected into the human embryonic kidney cell line (HEK293FT) using a polyethylenimine (PEI) protocol. Cells were plated onto 48-(2504) or 96-well (1004) plates the day prior to transfection (200,000 cells/mL), such that the cells were 50-70% confluent the day of transfection. Cells were kept in a humidified incubator at 37° C. and 5% CO2 and maintained in DMEM medium (Corning) with 10% Heat Inactivated Fetal Bovine Serum (Life Technologies), 50 U.I./mL penicillin/50 μg/mL streptomycin (Corning), 2 mM glutamine (Corning) and 1 mM sodium pyruvate (Lonza). […]
as §1

Row | Molecule | Leaky recombinase behavior on 2-input BLADE decoder [1] | Cross-reactivity on other recombinases' reporter constructs [2]
1 | split Flp system: split Flp recombinase construct fused to ABA-binding domains ABI and PYL (SEQ ID NO: 38 and 39) (protein) chain 1: MSQFDILCKTPPKVLVRQFVERFERPSGEKIASCAAELTYLCWMITHNGTAIKRATFMSYNTIISNSLSFDIVNKSLQFKYKTQKATILEASLKKLIPAWEFTIIPYNGQKHQSDITDIVSSLQLQFESSEEADKGNSHSKKMLKALLSEGESIWEITEKILNSFEYTSRFTKTKTLYQFLFLATFINCGRFSDIKNVDPKSFKLVQNKYLGVIIQCLVTETKTSVSRHIYFFSARGRIDPLVYLDEFLRNSEPVLKRVNRTGNSSSNKQEYQLLKDNLVRSYNKALKKNAPYPIFAIKNGPKSHIGRHLMTSFLSMKGLTELTNVVGNWSDKRASAVARTTYTHQITAIPDHYFALVSRYYAYDPISKEMIALKDETNPIEEWQHIEQLKGSAEGSGGSGSGSSGGSGTPLYGFTSICGRRPEMEDAVSTIPRFLQSSSGSMLDGRFDPQSAAHFFGVYDGHGGSQVANYCRERMHLALAEEIAKEKPMLCDGDTWLEKWKKALFNSFLRVDSEIGSVAPETVGSTSVVAVVFPSHIFVANCGDSRAVLCRGKTALPLSVDHKPDREDEAARIEAAGGKVIQWNGARVFGVLAMSRSIGDRYLKPSIIPDPEVTAVKRVKEDDCLILASDGVWDVMTDEEACEMARKRILLWHKKNAVAGDASLLADERRKEGKDPAAMSAAEYLSKLAIQRGSKDNISVVVVDLKDYKDDDDKPKKKRKV chain 2: MAPTQDEFTQLSQSIAEFHTYQLGNGRCSSLLAQRIHAPPETVWSVVRRFDRPQIYKHFIKSCNVSEDFEMRVGCTRDVNVISGLPANTSRERLDLLDDDRRVTGFSITGGEHRLRNYKSVTTVHRFEKEEEEERIWTVVLESYVVDVPEGNSEEDTRLFADTVIRLNLQKLASITEAMNYPYDVPDYASGGSGSGSSGGSGTSIRYPAWNGIISQEVLDYLSSYINRRIPKKKRKV | minimal leaky recombinase behavior | –
2 | Cre: full-length tyrosine recombinase, recognizes loxP (protein) MSNLLTVHQNLPALPVDATSDEVRKNLMDMFRDRQAFSEHTWKMLLSVCRSWAAWCKLNNRKWFPAEPEDVRDYLLYLQARGLAVKTIQQHLGQLNMLHRRSGLPRPSDSNAVSLVMRRIRKENVDAGERAKQALAFERTDFDQVRSLMENSDRCQDIRNLAFLGIAYNTLLRIAEIARIRVKDISRTDGGRMLIHIGRTKTLVSTAGVEKALSLGVTKLVERWISVSGVADDPNNYLFCRVRKNGVAAPSATSQLSTRALEGIFEATHRLIYGAKDDSGQRYLAWSGHSARVGAARDMARAGVSIPEIMQAGGWTNVNIVMNYIRNLDSETGAMVRLLEDGD | – | showed cross-reactivity in a dose-dependent manner; also recorded: mutually cross-reactive
3 | VCre: full-length tyrosine recombinase (SEQ ID NO: 16), recognizes VloxP (protein) MIENQLSLLGDFSGVRPDDVKTAIQAAQKKGINVAENEQFKAAFEHLLNEFKKREERYSPNTLRRLESAWTCFVDWCLANHRHSLPATPDTVEAFFIERAEELHRNTLSVYRWAISRVHRVAGCPDPCLDIYVEDRLKAIARKKVREGEAVKQASPFNEQHLLKLTSLWYRSDKLLLRRNLALLAVAYESMLRASELANIRVSDMELAGDGTAILTIPITKTNHSGEPDTCILSQDVVSLLMDYTEAGKLDMSSDGFLFVGVSKHNTCIKPKKDKQTGEVLHKPITTKTVEGVFYSAWETLDLGRQGVKPFTAHSARVGAAQDLLKKGYNTLQIQQSGRWSSGAMVARYGRAILARDGAMAHSRVKTRSAPMQWGKDEKD | – | showed cross-reactivity in a dose-dependent manner; also recorded: can recombine Vika's recombination sites
